# Reference: patent US20150111251A1 (AbbVie / Abbott, published 2015)
# Changes are numbered by the printed parent chain.
# B1: AB384 (antibody, V domains shown)
# VH: EIQLVQSGAEVKKPGASVKVSCKASGYTFTNYGMNWVRQAPGQGLEWMGWINTYTGEPTYADDFKGRVTFTTDTSTSTAYMELSSLRSEDTAVYYCARKFLTTVVVTDYAMDYWGQGTTVTVSS
# VL: DVVMTQSPAFLSVTPGEKVTITCRASQDISNYLNWYQQKPDQAPKLLIKYTSRLQSGVPSRFSGSGSGTDFTFTISSLEAEDAATYYCQQGNTLPPTFGQGTKLEIK
# notes: Full-length humanized antibody made in HEK 293-6E; also called hMAK199VH.2b/hMAK199VL.2
# B2: AB372 (antibody, V domains shown)
# VH: B1 VH with I2V, F70M
# VL: B1 VL
# notes: Full-length humanized antibody made in HEK 293-6E; also called hMAK199VH.2/hMAK199VL.2
# B3: AB378 (antibody, V domains shown)
# VH: B1 VH with V68F, T72L, Y95F
# VL: B1 VL
# notes: Full-length humanized antibody made in HEK 293-6E; also called hMAK199VH.2a/hMAK199VL.2
# B4: AB353 (antibody, V domains shown)
# VH: EVQLVQSGSELKKPGASVKVSCKASGYTFTNYGMNWVRQAPGQGLEWMGWINTYTGEPTYADDFKGRFVFSLDTSVSTAYLQISSLKAEDTAVYYCARKFLTTVVVTDYAMDYWGQGTTVTVSS
# VL: DIQMTQSPSSLSASVGDRVTITCRASQDISNYLNWYQQKPGKAPKLLIYYTSRLQSGVPSRFSGSGSGTDYTLTISSLQPEDFATYYCQQGNTLPPTFGQGTKLEIK
# notes: Full-length humanized antibody made in HEK 293-6E; also called hMAK199VH.1/hMAK199VL.1b
# B5: AB356 (antibody, V domains shown)
# VH: B4 VH
# VL: B1 VL with V2I, K49Y, F71Y
# notes: Full-length humanized antibody made in HEK 293-6E; also called hMAK199VH.1/hMAK199VL.2b
# B6: AB363 (antibody, V domains shown)
# VH: B4 VH with Y95F
# VL: B4 VL with Y71F
# notes: Full-length humanized antibody made in HEK 293-6E; also called hMAK199VH.1b/hMAK199VL.1
# B7: AB358 (antibody, V domains shown)
# VH: B4 VH with V2I, Y95F
# VL: B4 VL with A43T, P44V, Y87F
# notes: Full-length humanized antibody made in HEK 293-6E; also called hMAK199VH.1a/hMAK199VL.1a
# B8: AB361 (antibody, V domains shown)
# VH: B4 VH with V2I, Y95F
# VL: B1 VL with V2I, A43T, P44V, K49Y, F71Y, Y87F
# notes: Full-length humanized antibody made in HEK 293-6E; also called hMAK199VH.1a/hMAK199VL.2a
# B9: AB357 (antibody, V domains shown)
# VH: B4 VH with V2I, Y95F
# VL: B4 VL with Y71F
# notes: Full-length humanized antibody made in HEK 293-6E; also called hMAK199VH.1a/hMAK199VL.1
# B10: AB365 (antibody, V domains shown)
# VH: B4 VH with Y95F
# VL: B4 VL
# notes: Full-length humanized antibody made in HEK 293-6E; also called hMAK199VH.1b/hMAK199VL.1b
# B11: AB364 (antibody, V domains shown)
# VH: B4 VH with Y95F
# VL: B4 VL with A43T, P44V, Y87F
# notes: Full-length humanized antibody made in HEK 293-6E; also called hMAK199VH.1b/hMAK199VL.1a
# B12: AB352 (antibody, V domains shown)
# VH: B4 VH
# VL: B4 VL with A43T, P44V, Y87F
# notes: Full-length humanized antibody made in HEK 293-6E; also called hMAK199VH.1/hMAK199VL.1a
# B13: AB367 (antibody, V domains shown)
# VH: B4 VH with Y95F
# VL: B1 VL with V2I, A43T, P44V, K49Y, F71Y, Y87F
# notes: Full-length humanized antibody made in HEK 293-6E; also called hMAK199VH.1b/hMAK199VL.2a
# B14: AB368 (antibody, V domains shown)
# VH: B4 VH with Y95F
# VL: B1 VL with V2I, K49Y, F71Y
# notes: Full-length humanized antibody made in HEK 293-6E; also called hMAK199VH.1b/hMAK199VL.2b
# B15: AB355 (antibody, V domains shown)
# VH: B4 VH
# VL: B1 VL with V2I, A43T, P44V, K49Y, F71Y, Y87F
# notes: Full-length humanized antibody made in HEK 293-6E; also called hMAK199VH.1/hMAK199VL.2a
# B16: AB377 (antibody, V domains shown)
# VH: B1 VH with V68F, T72L, Y95F
# VL: B4 VL
# notes: Full-length humanized antibody made in HEK 293-6E; also called hMAK199VH.2a/hMAK199VL.1b
# B17: AB359 (antibody, V domains shown)
# VH: B4 VH with V2I, Y95F
# VL: B4 VL
# notes: Full-length humanized antibody made in HEK 293-6E; also called hMAK199VH.1a/hMAK199VL.1b
# B18: AB351 (antibody, V domains shown)
# VH: B4 VH
# VL: B4 VL with Y71F
# notes: Full-length humanized antibody made in HEK 293-6E; also called hMAK199VH.1/hMAK199VL.1
# B19: AB360 (antibody, V domains shown)
# VH: B4 VH with V2I, Y95F
# VL: B1 VL
# notes: Full-length humanized antibody made in HEK 293-6E; also called hMAK199VH.1a/hMAK199VL.2
# B20: AB366 (antibody, V domains shown)
# VH: B4 VH with Y95F
# VL: B1 VL
# notes: Full-length humanized antibody made in HEK 293-6E; also called hMAK199VH.1b/hMAK199VL.2
# B21: AB362 (antibody, V domains shown)
# VH: B4 VH with V2I, Y95F
# VL: B1 VL with V2I, K49Y, F71Y
# notes: Full-length humanized antibody made in HEK 293-6E; also called hMAK199VH.1a/hMAK199VL.2b
# B22: AB354 (antibody, V domains shown)
# VH: B4 VH
# VL: B1 VL
# notes: Full-length humanized antibody made in HEK 293-6E; also called hMAK199VH.1/hMAK199VL.2
# Molecular target: T1, Recombinant Human TNF-α/TNFSF1A (human, UniProt P01375 77-233)
# T1 construct: also called hTNF-α; huTNFα
# Test: SPR (BIACORE), antibody captured, TNFα in solution
# Procedure: The BIACORE assay (Biacore, Inc, Piscataway, N.J.) determines the affinity of antibodies with kinetic measurements of on-rate and off-rate constants. Binding of antibodies to a target antigen (for example, a purified recombinant target antigen) is determined by surface plasmon resonance-based measurements with a Biacore® 1000 or 3000 instrument (Biacore® AB, Uppsala, Sweden) using running HBS-EP (10 mM HEPES [pH 7.4], 150 mM NaCl, 3 mM EDTA, and 0.005% surfactant P20) at 25° C. All chemicals are obtained from Biacore® AB (Uppsala, Sweden) or otherwise from a different source as described. For example, approximately 5000 RU of goat anti-mouse IgG, (Fcγ), fragment specific polyclonal antibody (Pierce Biotechnology Inc, Rockford, Ill.) diluted in 10 mM sodium acetate (pH 4.5) is directly immobilized across a CM5 research grade biosensor chip using a standard amine coupling kit according to manufacturer's instructions and procedures at 25 μg/ml. Unreacted moieties on the biosensor surface are blocked with ethanolamine. Modified carboxymethyl dextran surface in flowcell 2 and 4 is used as a reaction surface. Unmodified carboxymethyl dextran without goat anti-mouse IgG in flow cell 1 and 3 is used as the reference surface. For kinetic analysis, rate equations derived from the 1:1 Langmuir binding model are fitted simultaneously to association and dissociation phases of all eight injections (using global fit analysis) with the use of Biaevaluation 4.0.1 software. Purified antibodies are diluted in HEPES-buffered saline for capture across goat anti-mouse IgG specific reaction surfaces. Antibodies to be captured as a ligand (25 μg/ml) are injected over reaction matrices at a flow rate of 5 μl/minute. The association and dissociation rate constants, kₒₙ (M⁻¹ s⁻¹) and koff (s⁻¹), are determined under a continuous flow rate of 25 μl/minute. Rate constants are derived by making kinetic binding measurements at different antigen concentrations ranging from 10-200 nM. The equilibrium dissociation constant (M) of the reaction between antibodies and the target antigen is then calculated from the kinetic rate constants by the following formula: KD=koff/kₒₙ. Binding is recorded as a function of time and kinetic rate constants are calculated. In this assay, on-rates as fast as 10⁶ M⁻¹ s⁻¹ and off-rates as slow as 10⁻⁶ s⁻¹ can be measured.
# T1 sequence (P01375 77-233 limits assumed): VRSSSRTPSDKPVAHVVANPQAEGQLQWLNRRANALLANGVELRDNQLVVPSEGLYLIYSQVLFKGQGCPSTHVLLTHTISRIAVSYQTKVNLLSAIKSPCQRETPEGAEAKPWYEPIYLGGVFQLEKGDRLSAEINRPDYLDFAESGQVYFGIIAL
Kd [nM],koff [s⁻¹],kon [M⁻¹ s⁻¹],Binder
2.1,0.0014,660000,B1
1.2,0.0011,950000,B2
1.4,0.0013,880000,B3
0.46,0.00092,2e+06,B4
0.67,0.00089,1.3e+06,B5
0.86,0.0012,1.4e+06,B6
0.7,0.00097,1.4e+06,B7
0.79,0.00098,1.2e+06,B8
0.67,0.0013,1.9e+06,B9
0.91,0.001,1.1e+06,B10
0.89,0.0011,1.2e+06,B11
0.45,0.00094,2.1e+06,B12
1,0.001,1e+06,B13
1,0.0011,1.1e+06,B14
0.59,0.0014,2.4e+06,B15
1.4,0.0015,1.1e+06,B16
0.73,0.00093,1.3e+06,B17
–,0.00068,2e+06,B18
0.78,0.00097,1.2e+06,B19
0.93,0.0015,1.6e+06,B20
0.83,0.0011,1.3e+06,B21
0.52,0.001,2e+06,B22

# Molecular target: T1, Recombinant Human TNF-α/TNFSF1A
# Test: cell-based or functional assay
row,TNFα Neutralization Assay IC50 nM (L929 cells) [nM],Binder
1,0.66,B4
2,0.87,B5
3,0.32,B6
4,0.21,B7
5,0.82,B8
6,1.94,B9
7,1.52,B10
8,0.35,B11
9,0.35,B12
10,0.53,B13
11,1.09,B14
12,1.9,B15
13,> 20,B16
14,3.78,B17
15,1.06,B18
16,2.11,B21
